B1: spike (S) protein: N1249Q (protein)
parent chain: MKSLTYFWLFLPVLSTLSLPQDVTRCSANTNFRRFFSKFNVQAPAVVVLGGYLPIGENQGVNSTWYCAGQHPTASGVHGIFVSHIRGGHGFEIGISQEPFDPSGYQLYLHKATNGNTNATARLRICQFPSIKTLGPTANNDVTTGRNCLFNKAIPAHMSEHSVVGITWDNDRVTVFSDKIYYFYFKNDWSRVATKCYNSGGCAMQYVYEPTYYMLNVTSAGEDGISYQPCTANCIGYAANVFATEPNGHIPEGFSFNNWFLLSNDSTLVHGKVVSNQPLLVNCLLAIPKIYGLGQFFSFNQTIDGVCNGAAVQRAPEALRFNINDTSVILAEGSIVLHTALGTNFSFVCSNSSDPHLATFATPLGATQVPYYCFLKVDTYNSTVYKFLAILPPTVREIVITKYGDFYVNGFGYLHLGLLDAVTINFTGHGTDDDVSGFWTIASTNFVDALIEVQGTAIQRILYCDDPVSQLKCSQVSFDLDDGFYPISSRNLLSHEQPISFVTLPSFNDHSFVNITVSASFGGHSGANLIASDTTINGFSSFCVETRQFTISLFYNVTNSYGYVSKSQDSNCPFTLQSVNDYLSFSKFCVSTSLLASACTIDLFGYPEFGSGVKFTSLYFQFTKGELITGTPKPLVGVTDVSFMTLDVCTKYTIYGFKGEGIITLTNSSFLAGIYYTSDSGQLLAFKNVTSGAVYSVTPCSFSEQAAYVDDDIVGVISSLSNSTFNSTRELPGFFYHSNDGSNCTEPVLVYSNIGVCKSGSIGYVLSKSGQVKIAPTVTGNISIPTNFSMSIRTEYLQLYNTPVSVDCATYVCNGNSRCKQLLTQYIAACKTIESALQLSARLESAEVNSMLTISEEALQLATISSFNGDGYNFTNVLGVSVRDPASGRVVQKRSFIEDLLFNKVVTNGLGTVDEDYKRCSNGRSVADLVCAQYYSGVMVLPGVVDAEKLHMYSASLIGGMVLGGFTAAAALPFSYAVQARLNYLALQTDVLQRNQQLLAESFNSAIGDITSAFESVKEAISQTSKGLNTVAHALTKVQEVVNSQGAALTQLTVQLQHNFQAISSSIDDIYSRLDILSADVQVDRLITGRLSALNAFVAQTLTKYTEVQASRKLAQQKVNECVKSQSQRYGFCGGDGEHIFSLVQAAPQGLLFLHTVLVPGDFVDVIAIAGLCVNDEIALTLREPGLVLFTHELQNHTATEYFVSSRRMFEPRKPTVSDFVQIESCVVTYVNLTRDQLPDVIPDYIDVNKTLYEILASLPNRTGPSLPLDVFNATYLNLTGEIADLEQRSESLRNTTEELQSLIYNINNTLVDLEWLNRVETYIKWPWWVWLIIFIVLIFVVSLLVFCCISTGCCGCCGCCGACFAGCCRGPRLQPYEAFEKVHVQ
B2: spike (S) protein: N118Q (protein)
parent chain: B1 parent chain
B3: spike (S) protein: N1232Q (protein)
parent chain: B1 parent chain
B4: spike (S) protein: N726Q (protein)
parent chain: B1 parent chain
B5: spike (S) protein: N216Q (protein)
parent chain: B1 parent chain
B6: spike (S) protein: N514Q (protein)
parent chain: B1 parent chain
B7: spike (S) protein: N324Q (protein)
parent chain: B1 parent chain
B8: spike (S) protein: N556Q (protein)
parent chain: B1 parent chain
B9: spike (S) protein: N425Q (protein)
parent chain: B1 parent chain
B10: spike (S) protein: N300Q (protein)
parent chain: B1 parent chain
B11: spike (S) protein: N1261Q (protein)
parent chain: B1 parent chain
B12: spike (S) protein: N381Q (protein)
parent chain: B1 parent chain
B13: spike (S) protein: N1278Q (protein)
parent chain: B1 parent chain
B14: spike (S) protein: N743Q (protein)
parent chain: B1 parent chain
B15: spike (S) protein: N351Q (protein)
parent chain: B1 parent chain
B16: spike (S) protein: N688Q (protein)
parent chain: B1 parent chain
B17: spike (S) protein: N62Q (protein)
parent chain: B1 parent chain
B18: spike (S) protein: N781Q (protein)
parent chain: B1 parent chain
B19: spike (S) protein: N1196Q (protein)
parent chain: B1 parent chain
B20: spike (S) protein: N873Q (protein)
parent chain: B1 parent chain
B21: spike (S) protein: N344Q (protein)
parent chain: B1 parent chain

Test: 4 °C binding, RT-qPCR of PEDV N
Conditions: glycan lost; control: rPEDV-WT

Protein	other: viral attachment
B1	no change
B2	decreases
B3	no change

Test: viral titre in LLC-PK1 cells
Conditions: glycan lost; control: rPEDV-WT

Protein	other: viral replication
B1	decreases
B2	decreases
B3	decreases
B4	decreases
B5	decreases

Test: plaque morphology assay, ImageJ
Conditions: glycan lost; control: rPEDV-WT

Protein	other: plaque size
B1	decreases
B2	decreases
B3	decreases
B4	decreases
B5	decreases

Test: oral challenge; fecal scores, gross necropsy
Conditions: glycan lost; control: rPEDV-WT

Protein	other: virulence in animals
B1	decreases
B2	decreases
B3	decreases
B4	decreases
B5	decreases

Test: CHX chase, anti-Flag western blot, 293T
Conditions: glycan lost; control: WT S protein

Protein	degradation_or_half_life
B1	no change
B2	no change
B3	no change
B4	no change
B5	no change

Test: anti-PEDV N immunofluorescence of intestine sections
Conditions: glycan lost; control: rPEDV-WT

Protein	other: intestinal viral antigen
B1	abolishes
B3	abolishes

Test: RT-qPCR of rectal swabs
Conditions: glycan lost; control: rPEDV-WT

Protein	other: faecal viral shedding
B1	decreases
B3	decreases

Test: BAC transfection of Vero cells; CPE, western blot
Conditions: glycan lost; control: rPEDV-WT

Protein	other: virus rescue (viability), other: viruses recovered/attempts
B6	no change
B7	no change
B8	no change
B9	abolishes
B10	no change
B1	no change
B2	no change
B11	no change
B12	no change
B13	no change
B3	no change
B14	no change
B4	no change
B15	no change
B16	no change
B5	no change
B17	no change
B18	no change
B19	no change
B20	abolishes
B21	no change

Test: viral titre at 24 hpi, MOI 0.01
Conditions: glycan lost; control: rPEDV-WT

Protein	other: viral replication
B6	no change
B7	no change
B8	no change
B10	no change
B1	decreases
B2	decreases
B11	no change
B12	no change
B13	no change
B3	decreases
B14	no change
B4	decreases
B15	no change
B16	no change
B5	decreases
B17	no change
B18	no change
B19	no change
B21	no change

Test: RT-qPCR of intestinal tissues at 5 dpc
Conditions: glycan lost; control: rPEDV-WT

Protein	other: intestinal viral load
B1	decreases
B2	no change
B3	decreases
B4	no change
B5	no change

Test: 37 °C 30 min, citrate wash, RT-qPCR
Conditions: glycan lost; control: rPEDV-WT

Protein	other: viral internalization
B2	decreases
B3	decreases
B5	decreases

Test: H&E staining of intestine at 5 dpc
Conditions: glycan lost; control: rPEDV-WT

Protein	other: intestinal histopathology
B1	abolishes
B3	abolishes
